Values of other authors in patent US20230285262A1, “Skin Compositions and Uses” (Stemetrix, Inc., priority 2013, published 2023).

Columns and labels:
[1] = system: erythropoiesis-stimulating response; conditions: per mg of protein
[2] = commercial preparation judged 98% pure

EGF: human epidermal growth factor, commercial preparation judged 98% pure by PAGE and HPLC
ED50 (balb/c 3T3 cells; [2]): ≤ 0.1 ng/mL | specific activity (balb/c 3T3 cells; corresponding to ED50): ≥ 1×10^7 units/mg

TGFβ3: human transforming growth factor beta-3, commercial preparation judged 98% pure by PAGE and HPLC
expected ED50 (mouse HT-2 cells; [2]): 0.05 ng/mL | specific activity (mouse HT-2 cells; corresponding to ED50): ≥ 2×10^7 units/mg

Human urinary EPO: isolated human urinary EPO, international reference standard for EPO assays
specific activity [1]: about 70,000 U/mg

IGF-1: insulin-like growth factor-1, commercial preparation judged 98% pure by PAGE and HPLC
ED50 (FDC-P1 cells; [2]): 2.0 ng/mL | specific activity (FDC-P1 cells; corresponding to ED50): ≥ 5×10^5 units/mg
